20 sequences from a protein production outcome set (Wang et al. 2014) can be followed below.
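Further: failed if final PepcDB status was selected cloned or expressed and not failed if soluble or beyond.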

This series in a line: label from the status in PepcDB records.
As for “MKLSSNNAETMESLRSERNQYRILVDITNSVLAHLDMDGLISEVSKEIHRFFGLNHISLMLCRTSSQNSHEGILYSSRYQTGKSVIRQQRKFSSANNKAEEIIHQNKPVLIDINKEDQDDVLIKRLVKQNMQTALLLPLAFNRKPLGLLILAHEISSVFTEETCQLLQQIAARIGIAIENAAAYEEITHLKDS”, the protein production result was “failed”. As for “MKKSSILVFLLTYGLFYVSSILFPIDRMWYDALEKPSWTPSGMTIGIVWTVLYGLIALSVAIIYNKYGCKPKTFWFIFLLNYMCNQAFSYFQFSQKDLFLATIDCLLVAVTTLLLIAVSSSLSKVSTWLLIPYFLWATFATYLSWSIYSIN”, the protein production result is “failed”. Consider “MILTYHNMYYYQNESRDIAAALLIMTLAFFILLNGLGFYGLLSLIYLAIAFLVVVTAFLFHELAHRAVARRLGAVAFFKLWPIGAFLALITSLFHFLFAAPGAVEFAGVYDNESQGKIALAGPATNIIIGIITYILSIFSLGIVHYVLYYVGALNLWFALFNMIPIPPLDGSKVFYWKGSIFAGVFVFTIIMNIVDGFLLHII”, for which the protein production entry is “failed”. Take “MRNDRSFIELRARERAHALLDDGSYRELLDPFEGIMSPWLGAQGIVPQSDDGMVVAKGTINGQPAVVIAIEGTFQGGSMGEVSGAKMAAALELAAEDNRNGIPTQAVLCLETGGVRLQEANLGLAAIADIHAAIVDLRRYTPVVGIITGTVGCFGGMSIAAALCSYLIVTREARLGLNGPQVIEQEAGIEEYDSRNRPFIWSMTGGEIRAASGLVDALVNDGVNAVKTAMIEAIAKGVPAQHRSDNYDDYLRRLSQFDTRQQADTAQIKQLFAREDK”: the protein production entry is listed as “not failed”. With “MSLRNPVLAGLSVEEIREAVSGEYLIEPREEKMVEQVVIGAMSPQSALRYLREARNAALVTGGDRSDLLLTALEMPNVRCLILTGNLEPVQLVLTKAEERGVPVILTGHDTLTAVSRLESVFGRTRIRGEPKVGIMRELFESEGHHHHHH”, the protein production entry is given as “not failed”. The entry for “MGKYFFSETEIKNSWDLVLTAFWQRYPNPFSSHVLTEDVLFRKVTSENLLVSRRLFTKTNRLPRWAERIFPGRRSVYIIEDSVVDLSNRSLTTMTWNVNHAKLMRVVERCVFTGEQDRPVWTHITRQAWISSGVFGLSRPIQEFGLARFRSNQLKAMKGMEHAISNLQKASSSCHGESAEKPKNVNPAAKNAQKPQQYI” is “failed”; for “MQLTSQAFSYGRPIPKKYSCQGVGISPPLSFSDVPREAKSLVLIVEDPDVPPSVREDGLWIHWIVYNLSPVVSNLAEGAQIFAVQGLNTAGEIGYCPPCPPDAKHRYYFYAYALDVVLSDEEGVTKEQLLEAMDGHIIATAELMGTYEKD” it is “not failed”; for “MIIPVRRFTPNAYIMRILVSIIVFLCIGWIGRVTELEENFITQNKPVEVGTFVTFTINIPDGSEIPYVAWDFGDGSGLGRYRKSLSVSYTFTEPGVYQVYARIQGEDFPLTVIQTVYKPTQKPAPAHSSTIVIDTVHQKVWAVNTDNNSVAYIDALNNTLLSEIPVGKQPRTVALDKDGNAWVANEEDASISVIAAATGQVLQTIILPYASRPYGICFDPQKDFCYVTLQGTGELVKIEAIGREIVESVHVGRSPRGIAVTSDGSQMLVTQFISPEENGLVRLIDTKTMHVQQEIVLAFDVTPDFEDRGRGVPNFLSSITITPDGTEAWVPSKKDNTARGMFRDGLALEFDNTVRTIVSRIDLSTMTENSQMRTDINDADMACAVEFSPYGNIAFVALQGVNKITMIDVASNSRLGLLDSTGLAPQGLVINADGSRLFVHNFLTRTVKVFNTEDIVLSNNFTPVVAATISTIITEKLAPQVLEGKQIFYNAADERMTFAGYISCASCHLDGASDERVWDFTDRGEGFRNTHSLLGRGGMDMGNVHWTSNFDEIQDFENDMRNGFKGKGFLPDAVFALVSDPLGNPKAGLSRELDALAAYVTSLNKVHASPYRNNDGSLTADGIEGEILFQELGCGSCHAGQDFTDRKTGVLHDVGTEQPSSGERRTLALTGFGTPTLKGIWETAPYLHDGSALTLKDVLVTRNAEKKHGDLSNLTETELDKLVAYLLQIDDNQDAVITALLFPIKREFVAMRIFPNPASESANVQLTNIVKSSGTIRIYNVIGHLLMTVLVEGMNEINLDVSQLNSGVYVVEYSDDTSKYSQKMVIQ” it is “failed”. The entry for “MKGRLLQRLRQLSISNSLRGAFLTGALLTLIVSMVSLYSWHEQSSQVRYSLDEYFPRIHSAFLIEGNLNLAVDQLNEFLLAPNTTVRLQLRTQIIQHLDKIERLSQGLQLAERRQLAVILQDSRTLLAELDNALYNMFLVREKVSELSARLTGSSDDFTTELNSLVQDFTWQQGTLLDQIEANQGDAAQYLQRSREVQNEQQQVYTLAEIENQIVDDLRDRLNELKSGNNDGMLVETHIRYLENLKKTADENIRALDDWPSTITLRQTIDELLEIGMVKNKMPDTMRDYVAAQKALLDASRAREATLGRFRTLLEAQLGSSHQQMQTFNQRLEQIVRVSGGLILVATLLALLLAWGLNHYFIRSRLVKRFTALNQAVVQIGLGRTDSTIPVYGRDELGRIARLLRHTLGQLNMQRRQLEQEVAERKEIEADLRAMQDELIQTAKLAVVGQTMTTLAHEINQPLNALSMYLFTAGRAIEQGQSGQARNTLRKAEGLINRIDAIIRSLRQFYRRAELETPLYPVDARQTFVAAWELLAMRHQSRQGALSLPTDTVWVSGDEVRIQQVLVNVLANALDACSHDAVIAVTWQTQGEALEVYIADNGPGWPVALLPSLLKPFTTSKAVGLGIGLSISVSLMAQMKGDLRLASTLTRNACVVLQFSVTDVDDVE” is “failed”; for “MYIMNIFITDFYHRNDLLDKAEAMIANHWPAFMMGTSVDDSYWERLYDVPFSHYQFMAVLKTQTEEKVIGVINSIALPWQTNSLNDLPDEGWDRVFQLGMEAEEQQLPCHLISALSVTIDHHYRGKGIAQRLINTLKEHAKKQGYLGVAVPVRPTLKHCYPLHSFAEYCQWKNDNDEPFDPWIRTHWRL” it is “failed”. The entry for “IRHEITSRTSVSVLVNRCNWFCTSPKCSGLTVMGCLCVAMSVAKKDKPTMSVTALINWARPLPPGQQQQPMTPTSPGNMLQPMATPSNLPTVDCSLDIQWLNLEGGFMSPMSPPEMKPDTAMLDGLRDDSTPPPAFKNYPPNHPLSGSKHLCSICGDRASGKHYGVYSCEGCKGFFKRTVRKDLTYACREERNCIIDKRQRNRCQYCRYQKCLACGMKREAVQEERQRAARGTEDAHPSSSVQVQELSIERLLEMESLVADPSEEFQFLRVGPDSNVPPKFRAPVSSLCQIGNKQIAALVVWARDIPHFSQLEMEDQILLIKGSWNELLLFAIAWRSMEFLTEERDGVDGTGNRTTSPPQLMCLMPGMTLHRNSALQAGVGQIFDRVLSELSLKMRTLRVDQAEYVALKAIILLNPDVKGLKNRQEVEVLREKMFLCLDEYCRRSRSSEEGRFAALLLRLPALRSISLKSFEHLFFFHLVADTSIAGYIRDALRNHAPPIDTNMM” is “not failed”; for “MTSHKPYWPIGVFTSVDAGLGVHLEVAQDLKVPTVQVHAPHPHTRTREHAQAFRAKCDAAGIQVTVIFGGFDGESYADIPTTARTVGLVPLETRASRVAEMKEISDFASWVGCPAIGLHIGFVPESSSPDYSELVRVTQDLLTHAANHGQAVHLETGQESADHLLEFIEDVNRPNLGINFDPANMILYGTGNPIEALRKVARYVRSIHCKDALWAPVNERGKSWGQEVALGTGDVGMEAYLTTLWEIGYRGPLTIEREIPHDPVQQKKDLASALELLTGLRKKIANC” it is “not failed”. Take “MAKGNKIPLTFHTYQDAATGTEVVRLTPPDVICHRNYFYQKCFFNDGSKLLFGAAFDGPWNYYLLDLKEQNATQLTEGKGDNTFGGFLSPNDDALYYVKNTRNLMRVDLTTLEEKTIYQVPDDWVGYGTWVANSDCTKMVGIEIKKEDWKPLTDWKKFQEFYFTNPCCRLIRVDLVTGEAETILQENQWLGHPIYRPGDDNTVAFCHEGPHDLVDARMWFINEDGTNMRKVKEHAEGESCTHEFWVPDGSAMIYVSYLKDDTNRYIRSIDPVTLEDRQLRVMPPCSHLMSNYDGTLLVGDGSDAPVDVQDDGGYKIENDPFLYVFNLKTGKEHRIAQHNTSWEVLEGDRQVTHPHPSFTPDNKQVLFTSDVDGKPALYLAKVPDSVWNLEHHHHHH”: the protein production result is listed as “not failed”.

On to “MKKKYFGTDGIRGKVGDFPITPDFFLRLGYAVGKVLLASDRQLAADKRPTVLIGKDTRISGYMLESALEAGFSAAGVDVLLSGPLPTPAVAYLVRALRIQAGAVISASHNPFDDNGIKFFSSAGSKLPDSMELQIEAELDQPMKTTPSIKLGRVQRLRDAAGRYIEFCKSTFPNQLDLRGLRIVVDCANGADYHIAGHVMHELGADVITTHASPDGFNINYECGATHIETLQGSILQHKADIGIAVDGDGDRVLMVSREGVLYDGDSLAYIIAKHRQQLGELQGGVAGTLMTNLAVEQAFERLGIPFARANVGDRYVSELLQQNDWYLGAENSGHIICRDKHTTGDGIISALQVLYALRDTGLTLADFMRDVPFFPQRLINVKVSGNFDFRSNPAVAACKNEAEQALGNDGRILLRASGTEPLIRVMVEGKVLQQTDYWAEKIAETIRQQAASSMTGS”, for which the protein production entry is listed as “failed”. For “MRDAYLMMVLMDALKEIFDLKEILKSPIRNKKVILFVSLVFILSLVLLYILVVNIKYFSYLGDIIFQNFQKHVENLKITLNEDNLHIILAIWKNNLTVCILNYILGIFSLFVIAVNSYILSYVLYKFGAESFIYLVLPHGIIEIPALILSASGGVLFNMGLVNFLINIKFGTKREVLYYIKESLKLLILSIILFIVAGIVEGTITFKIAKIMFS”, the protein production result is “failed”. The entry for “MTVGTYAELASVFAALSDETRWEILTELGRADQSASSLATRLPVSRQAIAKHLNALQACGLVESVKVGREIRYRALGAELNKTARTLERIGAEWDRRLAAIKQIAESMEE” is “not failed”.

Take “MSLDRTTQQPFGNGYLSVEQANLILNHLPLEITFVNKDDIFQYYNDSVPAAEMVFKRTPSQVGRNVELCHPPKVLDKVKKVFELLRNGQRDKVNMWFQSERLGKFVYVTYAAVRDQAGDFQGVLEYVQDIKPFFELDSEFNRDEGHHHHHH”: the protein production entry was “not failed”. As for “MLQLDHRHSIELHFAIPVSLPGCLSGAEVVADWPLDARSSGRQTSVSEAAGAGPVDRMNKEHYPFRMFLLGPFALVDAGGRSVAPKSKKAQALLAMLALSTRGSRSRIWLRDKLWSDRSDDQAAASLRQALLDIHKSLGPARDLLIADKNTVWLDTDRLLLDTDLMIRTERSPDQVTDELLEGIDIRDPEFEDWLALERQNWYRRLDEGQVHDVFEPRQQPSRDIAKHSALLPLTGAPDTSRTGKPVDIASSGPYGRRVGGDWQWMMALQSPIVVGAGEGGQIAATRFQNLIAKAIIDGLGFGVTDLSFTLPHIEENEQQISLPICLQLRLTFDGDMVLIELVMKHLINNRIHWLGSQAINRTQFERGEFGIAAALISQAVDQLAYFQEIQATDSRLSQDGLLIDAVNAIFRLSRDDLDNAERRLEEQIQYQPRSSTFAWLSFIRTFQVGQRFNALDAHLIEEAQAYARKALELDPQNSVSLALVGHVHSFLFGEYDYAANLFEKSIRLNPALPLGWDLYAMLHCYAGQPDKAVAMARWVQELGVYSPHKYYFDTTKCIAAALAGDHAAAITAGEEALRARPNFNSLLRYLASSHAHSNDLGSARHYLQRLEAVEGGFSINDFRGSGYPLLDTGGGQILIDGLLKAGAKLR”, the protein production result is reported as “failed”. The entry for “MVPAAMRGLNLALVDIGAGTSDIAITGQGTISGYAMVPSAGDEITEALASALILDFNTAERVKRQLSTRENLTFTDVVGQRHTLAAAELMEIIKPAVTELARQVATQIILLNGKPPQAVLLIGGGSLTPGLAAALAGQLEISPERVALEHHHHHH” is “failed”; for “STITYYRTDLFKQAGLSMPERPTWTQLGEFAAKLHQPDKGVYGMCLRGKAGWGENIALLSTMANAFGARWFDEHWKPELNSPEWANAANFYVNTLKNYGPPGVSSNGFNETLALFNSGKCALWVDASVAGSFTTDKEQSKVVDSVGFAPAPVEVTDKGSSWLYAWSLAIPATSRHKDAAKAFITWATSKAYIQLVAEKDGITNVPPGTRTSTYSEA” it is “failed”.
